Assay [1] deals with T1, sCoV2-RBD (Fc-tagged RBD of SARS-CoV-2 S protein) (SARS-CoV-2; human, UniProt P0DTC2 319-541). The assay can be described thus: ELISA titration on coated sCoV2-RBD.
For assay [2], the target named is T2, S protein of SARS-CoV (SARS-CoV, UniProt P59594 14-1195). The assay can be described thus: ELISA, purified IgG1 on coated S protein.
Assay [3] addresses T3, sCoV-RBD (Fc-tagged RBD of SARS-CoV S protein) (SARS-CoV; human, UniProt P59594 306-527). The assay can be described thus: ELISA, purified IgG1 on coated RBD protein.
Assay [4] addresses T1, sCoV2-RBD (Fc-tagged RBD of SARS-CoV-2 …). The assay can be described thus: BLI (Octet) blocking of ACE2 binding to captured sCoV2-RBD.
In assay [5] the target is T4, SARS-CoV-2 RBD protein (Sino Biological, Cat: 40592-V08B) (SARS-CoV-2, UniProt P0DTC2 319-541). Briefly: BLI (Octet), mAb on Protein A sensor.
For assay [6], the target named is T3, sCoV-RBD (Fc-tagged RBD of SARS-CoV S …). Briefly: phage ELISA, scFv on phage.
Assay [7] addresses T1, sCoV2-RBD (Fc-tagged RBD of SARS-CoV-2 …).
Assay [8] concerns the target T4, SARS-CoV-2 RBD protein (Sino …).
Assay [9] has the same target. The source holds these as a separate data set.
Assay [10] addresses SARS-CoV-2 S protein on live SARS-CoV-2-mNG reporter virus (SARS-CoV-2, UniProt P0DTC2 14-1273). Briefly: cell-based or functional assay.
The target in assay [11] is T1, sCoV2-RBD (Fc-tagged RBD of SARS-CoV-2 …). Briefly: ELISA titration on coated sCoV2-RBD. This is another data set of the same source.
Assay [12] addresses T2, S protein of SARS-CoV. Briefly: BLI (Octet), CoV2-20 against spike of SARS-CoV.
Assay [13] concerns the target T3, sCoV-RBD (Fc-tagged RBD of SARS-CoV S …). The assay can be described thus: ELISA titration on coated sCoV-RBD.
Assay [14] deals with T1, sCoV2-RBD (Fc-tagged RBD of SARS-CoV-2 …). The assay can be described thus: ELISA titration on coated sCoV2-RBD. The source holds these as a separate data set.
For assay [15], the target named is T3, sCoV-RBD (Fc-tagged RBD of SARS-CoV S …). The assay can be described thus: BLI (Octet) blocking of ACE2 binding to sCoV-RBD.

Where two headings read alike, the source gives them in different places.

B1: CoV2-32 (antibody, V domains shown)
VH: EVQLVESGGGLVQPGRSLRLSCAAPRFTFDDYAIHWVRQVPGKGLEWVSGSSWNSGTIGYAPSVKGRFTISRDNAKNSLFLQMNSLRVEDTALYYCAILPGDYNRVADVFDIWGQGTMVIVSS
VL: QAVVTQPPSVSGAPGQRVTISCTGSSSNIGAGYDVHWYQQLPGTAPKLLIYGNNNRPSGVPDRFSGSKSGTSASLAITGLQVEDEADYYCQSYDSSLSGYVFGTGTKVTVL
B1 yielded an EC50 in assay [1] of 12.6 nM. Also, the binding result in the assay with S protein of SARS-CoV [2] is reported as “no binding (tested: one concentration, not printed)”. Besides, the binding result in assay [3] was “no binding (tested: one concentration, not printed)”. Also, the IC50 in [4] is 10.4 µg/mL. Further, in [5], the Kd was determined as 1730 nM, the koff was 0.00158 s⁻¹ and the kon worked out at 915 M⁻¹ s⁻¹.

B2: CoV2-18 (antibody, V domains shown)
VH: QVQLVQSGAEVKKPGSSVKVSCKASGGTFSNYGISWVRQAPGQGLEWMGGIIPIFGTANYAQKFQGRVTITADKSTRTAYMELSSLRFEDTAVYYCARDRDDALTGLGLGGGFDIWGQGTMVTVSS
VL: QAVVTQPPSASGTPGQRVTISCSGSTSNIGTNTANWYQHLPGTAPKLLIYGNDRRPSGVPDRFSGSKSVTSASLAISGLQSEDEADYYCAAWDERLNGYVFGTGTKLTVL
Consider B2, for which the binding result in [6] is “no binding”; with S protein of SARS-CoV [2] it was “no binding (tested: one concentration, not printed)”. Moreover, the EC50 in assay [1] and in [7] was 2.41 nM each time. Further, the Kd in [8] and in assay [9] was 11.4 nM in each case. The molecule also gave a koff in assay [8] of 0.000467 s⁻¹. The molecule also yielded a kon in assay [8] of 41200 M⁻¹ s⁻¹. Besides, the “NC50 (neutralisation of reporter SARS-CoV-2, Vero E6 cells)” value (shortened to “NC50”) in assay [10] is 1.93 µg/mL. The IC50 in assay [4] was 6.03 µg/mL.

B3: CoV2-33 (antibody, V domains shown)
VH: QVQLVESGGGLVQPGRSLRLSCAASRFTFDDHAMHWVRQAPGKGLEWVSGISWNGGIIGYADSVKGRFTISRDNAKNSLYLQMNSLRAEDTALYYCAKGMGFGESNYYAMDVWGQGTMVTVSS
VL: QSALTQPASVSGSPGQSITISCTGTSSDVGGYNYVSWYQQHPGKAPKLIIYDVSNRPSGVSNRFSGSKSGNTASLTISGLQAEDEAYYYCSSYTSISNLVVFGGGTKVTVL
In turn, B3 registered an EC50 in assay [1] of 10.8 nM. For the same molecule, in the assay with S protein of SARS-CoV [2], the binding result is “no binding (tested: one concentration, not printed)”. The binding result in assay [3] is given as “no binding (tested: one concentration, not printed)”. This molecule gave an IC50 in assay [4] of 5.47 µg/mL. In assay [5], the Kd is 168 nM, the koff came to 0.00137 s⁻¹ and the kon amounted to 8180 M⁻¹ s⁻¹.

B4: CoV2-17 (antibody, V domains shown)
VH: QVELVESGGGLVKPGGSLRLSCAASGFTFSSYSMNWVRQAPGKGLEWVSSISSSSSYIYYADSVKGRFTISRDNAKNSLYLQMNSLRAEDTAVYYCARGNVDIVATGEVDAFDIWGQGTMVSVSS
VL: QAVVTQPPSASGTLGQRVTISCSGSSSTIGSNYVYWYQQLPGTAPKLLIYRNNQRPSGVPDRFSGSKSGTSASLAISGLRSEDEADYYCAAWDDSLSGYVFGTGTQLTVL
On to B4, for which the binding result is recorded as “no binding” in assay [6] and “no binding (tested: one concentration, not printed)” in the assay with S protein of SARS-CoV [2]. The EC50 in assay [1] was found to be 2.24 nM; in [7] it was 2.31 nM. For the same molecule, the Kd is 1.73 nM in assay [8], 1.73 nM in assay [9] and 53.4 nM in assay [5]. In addition, the koff in assay [8] is 5.78e-05 s⁻¹; in assay [5], 0.00101 s⁻¹. The kon in assay [8] was 33300 M⁻¹ s⁻¹; in [5], 18900 M⁻¹ s⁻¹. In addition, the “NC50” value in [10] worked out at 2.49 µg/mL. Besides, the IC50 in assay [4] was 4.28 µg/mL.

B5: CoV2-35 (antibody, V domains shown)
VH: QVQLHQWGAGLLKPSETLSRTCAVYGGSFSGYSWTWIRQAPGKGLEWIGEINHGGSTKYNPSLESRVTISVDTSKKQFSLELRSVTAADTAVYYCARGYDTNWYGDGYNWFDPWGQGTLVSVSS
VL: NFMLTQPASVSVAPGKTASITCGGDNIGTKSVHWYRQKPGQAPVLVIYYDSDRPSGIPERFSGSNSGNTATLTISRVEAGDEADYYCQVGDSSSHVVFGGGTKVTVL
In the case of B5, the midpoint of the response in assay [1], the EC50, lay at 40 nM. For the same molecule, the binding result in the assay with S protein of SARS-CoV [2] was “no binding (tested: one concentration, not printed)”; in assay [3], “no binding (tested: one concentration, not printed)”.

B6: CoV2-01 (antibody, V domains shown)
VH: QVLLVQSGAEMKKPGASVKVSCKTSGYTFTNSYIHWVRQAPGQGLEWMGWINPISGGTNYAQKFQGRVTMTRDTSINTAYMELSRLRSDDTAVYYCARDRGDYDYGWGTSPFYFDYWGQGTLVTVSS
VL: DVQMTQSPSSLSASVGDRVTITCRASQSISRYLNWYQQKPGKAPKLLIYAASSLQSGVPSRFSGSGSGADFTLTISSLQPEDFATYYCQQSFSPPITFGQGTRLEIK
Regarding B6, the binding result in assay [6] is “no binding”; in the assay with S protein of SARS-CoV [2] it was “no binding (tested: one concentration, not printed)”. The EC50 in assay [1] and in assay [7] was 0.83 nM in each case. The dissociation constant Kd in [9] and in [5] was 10.8 nM each time. Besides, the “NC50” value in [10] worked out at 5.2 µg/mL. The molecule also showed an IC50 in [4] of 9.17 µg/mL. Besides, the koff in assay [5] was determined as 0.000574 s⁻¹. In [5], this molecule returned a kon of 53300 M⁻¹ s⁻¹.

B7: CoV2-11 (antibody, V domains shown)
VH: QVELVESGGGLVQPGRSLRLSCEASGFSFDNYAMHWVRQTPGKGLEWVSGITGNSGTIGYADSVKGRFTISRDNAKNSLYLQMNRLRAEDTALYYCAKDTDYDSSGSYFDYWGQGTLVTVSS
VL: QPVLTQPPSVAVAPGQTARITCGGKNIGRESVHWYQQKPDQAPVLVIYSDGDRPSGTSERFSGSRSGNAATLTISRVEAGDEADYFCQVWDPDTDHYVFGTGTELTVL
Regarding B7, in assay [11], the half-maximal effective concentration (EC50) is 0.59 nM. Besides, in assay [1], the EC50 was 0.6 nM. In assay [4], this molecule gave a half-inhibitory concentration (IC50) of 2.97 µg/mL. In [5], this molecule had a Kd of 4.97 nM, a koff of 0.000306 s⁻¹ and a kon of 61600 M⁻¹ s⁻¹.

B8: CoV2-20 (antibody, V domains shown)
VH: QVQLVESGGDLVQPGRSLRLSCAASGFIFDDYAMHWVRQVPGKGPEWVSGVNRDSTYVGQADSVKGRFTISRDNAKKALFLQMDSLRVEDTALYYCVRGMTRVATDAFDFWGQGTMVTVSS
VL: AIQMTQSPSSLSASVGDRVTITCRASQSINGYLNWYQQKPGKAPKLLIYSASRLQSGVPSRFSGSGSGADYTLTISNLQVEDFATYYCQQSYSTPPVTFGQGTRLEIK
For the molecule B8, the dissociation constant Kd with S protein of SARS-CoV [12] is 24.4 nM; in assay [5] it was 29.5 nM. Further, the figures for the off-rate (koff) (in the assay with S protein of SARS-CoV [12]; in assay [5]) were 0.000676 s⁻¹ and 0.000805 s⁻¹, respectively. The kon amounted to 27700 M⁻¹ s⁻¹ with S protein of SARS-CoV [12] and 27300 M⁻¹ s⁻¹ in [5]. For the same molecule, the EC50 came to 9.96 nM in assay [13], 22 nM in [1] and 5.99 nM in assay [14]. For the same molecule, the IC50 in assay [15] turned out to be 44.6 µg/mL; in assay [4], 14.7 µg/mL.

B9: CoV2-29 (antibody, V domains shown)
VH: QVQLVESGGGLVQPGGSLRLSCAASGFTFSSYWMSWVRQAPGKGLEWVANIKQDGSEKYYVDSVKGRFTISRDNAKNSLYLQMNSLRAEDTAVYYCARMADDDFWRDLPGFYMDVWGKGTTVTVSS
VL: QAVVTQPASVSGSPGQSITISCTGTSSDVGGYNYVSWYQQHPGKAPKLMIYDVSNRPSGVSNRFSGSKSGNTASLTISGLQAEDEADYYCSSYTSSSTLVFGGGTKVTVL
Consider B9, for which the figures for the EC50 in [1] and in [7] were 4.05 nM and 4.04 nM, respectively. In addition, the binding result in the assay with S protein of SARS-CoV [2] was “no binding (tested: one concentration, not printed)”; in [3] it was “no binding (tested: one concentration, not printed)”. Further, the “NC50” value in assay [10] is 1.13 µg/mL. In [4], this molecule came in with a half-inhibitory concentration (IC50) of 2.25 µg/mL.

The values are drawn from patent publication US20230399384A1 (University of Texas, published 2023).
